For assay [1], the target named is T1, rat PDGFRB on SCC VII cells (rat, UniProt Q05030 32-1097).
T1 construct: whole, on cells; also called rPDGFRB; SCC-rPDGFRB
The assay can be described thus: binding assay on SCC VII cells transfected with rat PDGFRB-GFP, VHH detected with anti-VHH rabbit serum and IRDye800CW secondary antibody; binding in % (n=2) [right panel]. As to the method:
(§1) FIG. 9. Binding of selected VHHs on SCC VII cells transfected with either the human or rat PDGFRB receptor (SCC-hP or SCC-rP) fused to GFP. The VHH is detected using anti-VHH rabbit serum and donkey-anti-rabbit secondary antibody labelled with IRDye800CW.
(§2) The results are summarized in FIGS. 5 and 6 for the hPDGFRB and rPDGFRB VHHs, respectively. […] Moreover, the binding affinities of the hPDGFRB VHHs human were also determined on the human hepatic stellate cell (HSC) line LX-2 (FIG. 5).

For assay [2], the target named is T1, rat PDGFRB on SCC VII cells. The assay can be described thus: binding assay on SCC VII cells transfected with rat PDGFRB (Example 4).
Assay [3] has as its target T2, rat PDGFRB extracellular domain (rat, UniProt Q05030 32-531).
T2 construct: extracellular domain; also called rPDGFRB-ECD; rat PDGFRB ectodomain
T2 sequence (looked up): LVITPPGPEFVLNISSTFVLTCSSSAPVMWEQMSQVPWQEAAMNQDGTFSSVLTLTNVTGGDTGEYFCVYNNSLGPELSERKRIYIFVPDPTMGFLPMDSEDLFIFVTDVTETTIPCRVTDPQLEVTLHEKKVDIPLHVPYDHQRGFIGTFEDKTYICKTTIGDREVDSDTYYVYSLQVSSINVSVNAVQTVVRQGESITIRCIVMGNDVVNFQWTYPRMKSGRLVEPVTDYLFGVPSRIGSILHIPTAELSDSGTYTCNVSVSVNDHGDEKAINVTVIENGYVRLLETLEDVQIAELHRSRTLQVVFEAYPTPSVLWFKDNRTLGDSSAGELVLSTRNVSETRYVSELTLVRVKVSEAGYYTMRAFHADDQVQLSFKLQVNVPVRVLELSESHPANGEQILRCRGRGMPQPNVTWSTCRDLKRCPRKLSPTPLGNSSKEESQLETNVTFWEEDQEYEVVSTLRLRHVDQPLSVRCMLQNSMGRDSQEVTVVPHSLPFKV
The assay is described as follows: binding assay on immobilised rat PDGFRB ectodomain, apparent affinity (Example 4).

The target of assay [4] is T3, human PDGFRB on SCC VII cells (human, UniProt P09619 33-1106).
T3 construct: whole, on cells; also called hPDGFRB; SCC-hPDGFRB
The assay is described as follows: binding assay on SCC VII cells transfected with hPDGFRB. As to the method:
(§3) Based on their high affinity and binding to non-overlapping hPDGRB epitopes, VHHs SP02P, SP12P SP14P and […] were selected for the design of biparatopic VHH constructs and produced in a similar way as described in example 6.1. (FIG. 15A). The binding affinities of the biparatopic constructs were determined with an ELISA assay with the periplasm (FIG. 15A). Moreover, based on their high affinity and binding to non-overlapping rPDGRB epitopes, VHHs SP26P and SP28P were selected for the design of a biparatopic VHH construct and produced in a similar way as described in example 6.1. The formed biparatopic SP28P-SP26P was conjugated to IRDye800CW (SP28P-SP26P-IRDye800CW conjugation method as described in example 9.2) and subjected to a binding assay SCC VII cells transfected with hPDGFRB, rPDGFRB or hIGF2R were performed (FIG. 15B). […] In order to create a biparatopic VHH construct which is cross-reactive for hPDGFRB and rPDGFRB, VHH SP02P binding to hPDGFRB and VHH SP026P binding to rPDGFRB were selected and the biparatopic construct SP02P-SP26P was produced in a similar way as described in example 6.1. (FIG. 15C). Construct SP02P-SP26P was conjugated to IRDye800CW (SP02P-SP26P-IRDye800CW, conjugation method as described in example 9.2) and subjected to bindings assays on SCC VII cells transfected with hPDGFRB, rPDGFRB or hIGF2R were performed (FIG. 15C).

Assay [5] concerns the target T3, human PDGFRB on SCC VII cells. The assay is described as follows: binding assay of the IRDye800CW conjugate on SCC VII cells transfected with human PDGFRB, fluorescence at 800 nm. The method, then:
as §3

The target of the next assay is T4, human IGF2R on cells (human, UniProt P11717 41-2491).
T4 construct: whole, on cells; On SCC VII cells over-expressing human IGF2R, NIH 3T3 2.2 cells transiently transfected with hIGF2R, or A549 cells, as told under assay or readout; also called hIGF2R
The assay is described as follows: binding assay on SCC VII cells over-expressing human IGF2R. The method, then: (§4) To determine whether 13F11-13E8 is cross-reactive against rIGF2R, the construct was conjugated to IRDye800CW (13F11-13E8-IRDye800CW, conjugation method as described in example 9.2) and the binding affinity was determined using a binding assay on SCC VII cells over-expressing either human, or rat IGF2R (FIG. 12).

In another assay the target is T5, rat IGF2R on cells (rat, UniProt A0A8I6GLL6 43-2479).
T5 construct: whole, on cells; also called rIGF2R
The assay is described as follows: binding assay on SCC VII cells over-expressing rat IGF2R. As to the method:
as §4

Assay [6] addresses T6, human PDGFRB on LX-2 cells (human, UniProt P09619).
T6 construct: full-length receptor on the cell surface; The list has human PDGFRB only on SCC VII cells
The assay is described as follows: binding assay on the human hepatic stellate cell line LX-2 (Example 4).

The target of assay [7] is T3, human PDGFRB on SCC VII cells. The assay is described as follows: binding assay on SCC VII cells transfected with human PDGFRB (Example 4).
The target of assay [8] is T7, human PDGFRB extracellular domain (human, UniProt P09619 33-532).
T7 construct: extracellular domain; also called hPDGFRB-ECD; human PDGFRB ectodomain
The assay is described as follows: binding assay on immobilised human PDGFRB ectodomain, apparent affinity (Example 4).

Assay [9] addresses T3, human PDGFRB on SCC VII cells. The assay is described as follows: binding assay on SCC VII cells transfected with human PDGFRB-GFP, VHH detected with anti-VHH rabbit serum and IRDye800CW secondary antibody; binding in % (n=6) [left panel]. As to the method:
as §1, §2

The target in assay [10] is T7, human PDGFRB extracellular domain. The assay can be described thus: binding and competition assays of Examples 4 and 5.
The next assay deals with PDGFRB ECD. The assay can be described thus: competition ELISA on PDGFRB ECD: unconjugated competitor titrated against SP26P-IRDye800, fluorescence at 800 nm. As to the method: Competition ELISAs were carried out to determine whether the hPDGFRB specific binders (FIG. 5) and rPDGFRB specific binders (FIG. 6) recognize distinct epitopes on hPDGFRB or rPDGFRB, respectively. The hPDGFRB binding VHHs SP02P, SP05P, SP12P and SP14P and the rPDGFRB binder SP26P were conjugated to IRDye800CW (VHH-IRDye800CW, conjugation method as described in example 9.2) and each conjugated VHH was mixed with unconjugated competitor in trifold serial dilutions and incubated on immobilized […]. Two VHHs share (part of) the same epitope when the fluorescence signal of the VHH-IRDye800CW decreases upon increasing concentration of unconjugated VHH. Furthermore, using a similar method as described in section 5.1, binding epitope competition between the hPDGFRB binding VHH SP02P and rPDGFRB binding VHH SP26P was performed. No competition was observed between the two VHHs qualifying them as building blocks for biparatopic binding molecules (FIG. 11).
In general terms: ELISA stands for enzyme-linked immunosorbent assay.

T3 sequence (P09619 33-1106): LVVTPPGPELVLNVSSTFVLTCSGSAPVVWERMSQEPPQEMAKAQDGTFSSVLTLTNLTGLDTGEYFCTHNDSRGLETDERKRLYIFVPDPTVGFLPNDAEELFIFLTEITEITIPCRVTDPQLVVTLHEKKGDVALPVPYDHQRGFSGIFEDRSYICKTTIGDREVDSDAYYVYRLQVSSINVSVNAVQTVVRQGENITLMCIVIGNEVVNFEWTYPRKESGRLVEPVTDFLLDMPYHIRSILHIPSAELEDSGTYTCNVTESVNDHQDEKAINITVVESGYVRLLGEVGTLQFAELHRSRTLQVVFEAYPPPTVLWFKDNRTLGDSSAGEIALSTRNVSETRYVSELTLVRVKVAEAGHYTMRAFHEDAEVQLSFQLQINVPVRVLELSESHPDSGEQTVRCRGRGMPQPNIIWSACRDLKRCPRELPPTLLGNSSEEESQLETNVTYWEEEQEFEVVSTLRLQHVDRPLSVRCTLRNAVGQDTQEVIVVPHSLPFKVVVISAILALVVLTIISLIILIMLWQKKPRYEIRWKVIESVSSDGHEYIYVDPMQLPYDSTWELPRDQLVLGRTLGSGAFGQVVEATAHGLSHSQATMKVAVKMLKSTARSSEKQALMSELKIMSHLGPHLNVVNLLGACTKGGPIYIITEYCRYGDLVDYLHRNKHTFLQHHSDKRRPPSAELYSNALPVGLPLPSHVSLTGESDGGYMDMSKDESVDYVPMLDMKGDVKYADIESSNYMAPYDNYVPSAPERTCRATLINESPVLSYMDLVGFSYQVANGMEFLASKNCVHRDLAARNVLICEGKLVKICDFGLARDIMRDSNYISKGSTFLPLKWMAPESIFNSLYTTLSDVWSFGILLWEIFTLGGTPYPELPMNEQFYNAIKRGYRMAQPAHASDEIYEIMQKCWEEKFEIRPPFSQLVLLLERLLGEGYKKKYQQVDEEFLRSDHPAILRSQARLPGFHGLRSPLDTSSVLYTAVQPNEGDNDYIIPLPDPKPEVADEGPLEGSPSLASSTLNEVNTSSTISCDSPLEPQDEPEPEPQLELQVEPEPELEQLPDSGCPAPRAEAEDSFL
T7 sequence (P09619 33-532): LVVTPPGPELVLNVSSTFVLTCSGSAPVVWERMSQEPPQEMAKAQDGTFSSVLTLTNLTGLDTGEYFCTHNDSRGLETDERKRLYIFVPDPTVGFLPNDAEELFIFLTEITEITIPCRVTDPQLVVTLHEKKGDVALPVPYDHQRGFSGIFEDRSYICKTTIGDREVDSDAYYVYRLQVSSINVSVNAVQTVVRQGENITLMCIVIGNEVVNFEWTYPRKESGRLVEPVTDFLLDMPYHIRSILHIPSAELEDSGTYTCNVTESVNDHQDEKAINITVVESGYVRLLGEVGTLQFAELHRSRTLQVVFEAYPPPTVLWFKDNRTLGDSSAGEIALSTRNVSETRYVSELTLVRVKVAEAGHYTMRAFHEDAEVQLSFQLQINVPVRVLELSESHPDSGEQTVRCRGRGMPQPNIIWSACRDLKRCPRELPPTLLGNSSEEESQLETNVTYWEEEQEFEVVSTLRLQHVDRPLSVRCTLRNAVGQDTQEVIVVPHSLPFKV
T6 sequence (P09619 33-1106 limits assumed): as the sequence (P09619 33-1106) above
T4 sequence (P11717 41-2491): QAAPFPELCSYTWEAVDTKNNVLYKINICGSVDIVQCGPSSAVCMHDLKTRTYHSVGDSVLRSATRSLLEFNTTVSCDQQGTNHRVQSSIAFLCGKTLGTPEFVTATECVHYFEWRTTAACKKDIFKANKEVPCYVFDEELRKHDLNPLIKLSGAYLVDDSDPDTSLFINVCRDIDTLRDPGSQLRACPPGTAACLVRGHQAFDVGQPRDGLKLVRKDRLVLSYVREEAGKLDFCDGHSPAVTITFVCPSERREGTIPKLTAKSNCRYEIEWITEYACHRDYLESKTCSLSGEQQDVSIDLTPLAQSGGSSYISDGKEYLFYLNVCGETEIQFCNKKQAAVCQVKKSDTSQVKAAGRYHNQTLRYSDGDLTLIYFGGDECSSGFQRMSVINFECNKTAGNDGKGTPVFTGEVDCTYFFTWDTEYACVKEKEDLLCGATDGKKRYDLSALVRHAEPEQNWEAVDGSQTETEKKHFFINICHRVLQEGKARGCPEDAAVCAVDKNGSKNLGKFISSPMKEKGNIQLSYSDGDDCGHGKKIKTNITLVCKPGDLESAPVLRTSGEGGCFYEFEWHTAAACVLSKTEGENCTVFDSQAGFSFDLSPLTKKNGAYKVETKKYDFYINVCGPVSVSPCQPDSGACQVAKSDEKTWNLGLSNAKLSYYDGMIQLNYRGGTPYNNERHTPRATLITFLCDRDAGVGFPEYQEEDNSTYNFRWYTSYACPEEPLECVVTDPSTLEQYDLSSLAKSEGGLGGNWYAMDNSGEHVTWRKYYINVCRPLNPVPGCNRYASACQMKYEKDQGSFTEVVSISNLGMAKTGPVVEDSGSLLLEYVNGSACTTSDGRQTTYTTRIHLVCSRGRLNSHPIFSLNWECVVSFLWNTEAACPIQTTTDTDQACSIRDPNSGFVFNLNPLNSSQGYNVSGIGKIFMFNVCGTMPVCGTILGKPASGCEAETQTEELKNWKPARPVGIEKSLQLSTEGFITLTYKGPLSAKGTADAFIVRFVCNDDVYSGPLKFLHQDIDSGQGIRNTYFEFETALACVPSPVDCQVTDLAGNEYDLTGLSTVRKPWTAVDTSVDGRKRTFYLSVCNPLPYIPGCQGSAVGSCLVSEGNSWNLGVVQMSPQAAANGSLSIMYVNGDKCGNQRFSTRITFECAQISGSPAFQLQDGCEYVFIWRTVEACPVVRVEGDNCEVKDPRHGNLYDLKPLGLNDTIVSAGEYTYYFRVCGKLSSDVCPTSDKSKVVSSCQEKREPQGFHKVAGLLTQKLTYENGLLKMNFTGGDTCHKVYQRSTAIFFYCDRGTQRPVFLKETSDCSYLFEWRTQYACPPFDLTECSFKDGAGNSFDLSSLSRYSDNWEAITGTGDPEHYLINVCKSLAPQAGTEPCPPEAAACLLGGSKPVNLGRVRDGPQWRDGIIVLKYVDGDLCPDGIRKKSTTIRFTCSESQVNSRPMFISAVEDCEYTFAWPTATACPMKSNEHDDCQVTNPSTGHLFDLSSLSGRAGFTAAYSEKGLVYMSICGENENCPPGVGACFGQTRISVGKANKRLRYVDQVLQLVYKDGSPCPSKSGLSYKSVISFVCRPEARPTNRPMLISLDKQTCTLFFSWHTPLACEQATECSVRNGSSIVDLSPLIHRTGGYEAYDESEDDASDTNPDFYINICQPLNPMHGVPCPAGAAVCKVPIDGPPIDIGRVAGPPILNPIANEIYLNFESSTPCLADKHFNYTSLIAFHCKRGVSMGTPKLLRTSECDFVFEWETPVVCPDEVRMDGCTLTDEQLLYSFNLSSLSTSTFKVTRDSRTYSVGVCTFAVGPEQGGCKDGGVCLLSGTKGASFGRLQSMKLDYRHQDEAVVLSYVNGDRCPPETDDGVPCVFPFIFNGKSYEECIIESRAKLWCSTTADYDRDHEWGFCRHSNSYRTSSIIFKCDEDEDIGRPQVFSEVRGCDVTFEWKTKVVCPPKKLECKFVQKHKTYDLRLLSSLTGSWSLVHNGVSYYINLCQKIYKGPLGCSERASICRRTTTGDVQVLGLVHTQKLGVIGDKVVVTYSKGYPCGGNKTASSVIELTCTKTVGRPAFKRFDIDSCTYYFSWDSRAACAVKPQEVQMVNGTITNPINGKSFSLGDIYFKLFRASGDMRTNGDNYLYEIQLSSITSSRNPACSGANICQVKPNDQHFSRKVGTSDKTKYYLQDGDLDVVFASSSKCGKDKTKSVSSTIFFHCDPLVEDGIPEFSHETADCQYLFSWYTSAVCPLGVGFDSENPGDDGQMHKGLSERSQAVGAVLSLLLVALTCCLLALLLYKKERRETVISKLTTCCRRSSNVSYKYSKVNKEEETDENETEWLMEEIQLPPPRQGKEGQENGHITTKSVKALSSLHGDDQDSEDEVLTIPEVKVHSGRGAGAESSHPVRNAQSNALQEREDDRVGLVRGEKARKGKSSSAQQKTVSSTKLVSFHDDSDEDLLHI
PDGFRB ECD, sequence (P09619 33-532): as the sequence (P09619 33-532) above

B1: SP28P (VHH)
VHH: EVQLVESGGGLVQAGGSLRLSCAASGSIVSFNGINWYRQAPGKQREWVGGITQGGNTMYADSVRGRFTISRDNTKNTMYLQMNSLKPEDTAVYYCRRPPVASWGQGTQVTVSS
notes: Llama VHH; on phage in the phage ELISA
The EC50 (read off the curve) is the concentration that produces a half-maximal response. Low readings indicate greater potency, high ones weaker potency. Regarding B1, the “EC50 (read off the curve)” value in [1] is approximately 0.6 nM. Also, the Kd in assay [2] worked out at 0.5 nM; in [3], 6 nM.

B2: SP02P-SP26P-IRDye800CW (VHH, not shown: small tags and cut ends)
chain: EVQLVESGGGLVQAGGSLRLSCAASESISSIEQMGWFRQAPGKQRALVAINTYGGRTVYTNSVEGRFTMSRDSAKNMVYLQMTSLEPEDTAVYYCYAQTTAWRGGVWGQGTQVTVSSGGGGSGGGGSGGGGSEVQLVESGGGLVQAGGSLRLSCAASGRSFSSSVMGWFRQTPGKEREFVAATRWTAASTHYADSVKGRFTISRDHAENAVFLQMNSLKPEDTAVYYCAAGNYLDTAQYRYNYWGQGTQVTVSS
modifications: IRDye800CW by maleimide chemistry on the C-terminal free cysteine
notes: Biparatopic tandem VHH
For the molecule B2, the figures for the Kd in [4] and in assay [5] were less than 5 nM and 2.2 nM, respectively.

B3: 13F11-13E8-IRDye800CW (VHH, not shown: small tags and cut ends)
chain: EVQLVESGGRLVQPGDSLRLSCAASGRTFSDNAMGWFRQAPGKERRFVAGISWAGGSTYYSDSVKGRFTISRDNAKNTVYLQMNSLKPEDTAVYYCAAGLRAWVQRMPKDYNYWGQGTQVTVSSGGGGSGGGGSGGGGSEVQLVESGGGLVQAGGSLRLSCAASRSISPMGWYRQAPGKQRELVAIMPSSGPPIYADSVQGRFTISRDNAKNTVYLQMNSLKPEDTAVYYCNVGGGYWGQGTQVTVSS
modifications: IRDye800CW by maleimide chemistry on the C-terminal free cysteine
notes: Biparatopic tandem VHH; also called IRD800CW conjugated 13F11-13E8; F11E8
As to B3, the Kd with human IGF2R on cells and in the assay with rat IGF2R on cells was less than 10 nM in each case.

B4: SP02P (VHH)
VHH: EVQLVESGGGLVQAGGSLRLSCAASESISSIEQMGWFRQAPGKQRALVAINTYGGRTVYTNSVEGRFTMSRDSAKNMVYLQMTSLEPEDTAVYYCYAQTTAWRGGVWGQGTQVTVSS
notes: as for B1
Take B4: the Kd is 6.7 nM in [6], 4.1 nM in [7] and 6.2 nM in assay [8]. The “EC50 (read off the curve)” value in assay [9] was approximately 4 nM.

B5: SP28P-SP26P-IRDye800CW (VHH, not shown: small tags and cut ends)
chain: EVQLVESGGGLVQAGGSLRLSCAASGSIVSFNGINWYRQAPGKQREWVGGITQGGNTMYADSVRGRFTISRDNTKNTMYLQMNSLKPEDTAVYYCRRPPVASWGQGTQVTVSSGGGGSGGGGSGGGGSEVQLVESGGGLVQAGGSLRLSCAASGRSFSSSVMGWFRQTPGKEREFVAATRWTAASTHYADSVKGRFTISRDHAENAVFLQMNSLKPEDTAVYYCAAGNYLDTAQYRYNYWGQGTQVTVSS
modifications: IRDye800CW by maleimide chemistry on the C-terminal free cysteine
notes: Biparatopic tandem VHH; also called SP28-SP26P; SP28-26P
For B5, in assay [5], the Kd came out at 32.4 nM.

B6: SP26P (VHH)
VHH: EVQLVESGGGLVQAGGSLRLSCAASGRSFSSSVMGWFRQTPGKEREFVAATRWTAASTHYADSVKGRFTISRDHAENAVFLQMNSLKPEDTAVYYCAAGNYLDTAQYRYNYWGQGTQVTVSS
notes: Llama VHH; on phage in the phage ELISA; also called SP026P
B6: the binding result in [10] was “binds”. Besides, in the assay with PDGFRB ECD, the “IC50 (read off the curve)” value was approximately 40 nM.

The values are drawn from US20220143204A1 (LINXIS B V, published 2022).
